Data on 1 molecule can be found in paper PMC6173745, “Aberrant expression of CITED2 promotes prostate cancer metastasis by activating the nucleolin-AKT pathway” (Nature Communications, 2018).

The target in assay [1] is T1, Human recombinant protein NCL (human, UniProt P19338 1-710).
T1 construct: Nucleolin, human, recombinant protein bought from Origene; No catalogue number, host, tag or limits are printed; also called nucleolin; source: bought: Origene
Put plainly: co-IP; in vitro binding assay: recombinant proteins CITED2, PRMT5, NCL and P300 put together in a test tube, immunoprecipitated with the indicated antibodies, immunoblotted. The note with it: both partners purified. In general terms: Immunoblotting shows a protein as a band on a membrane.

Assay [2] has as its target T2, Human recombinant protein PRMT5 (human, UniProt O14744 1-637).
T2 construct: PRMT5, human, recombinant protein bought from Origene; No catalogue number, host, tag or limits are printed; source: bought: Origene
Described as above. To be noted: both partners purified.

T1 sequence (P19338 whole entry): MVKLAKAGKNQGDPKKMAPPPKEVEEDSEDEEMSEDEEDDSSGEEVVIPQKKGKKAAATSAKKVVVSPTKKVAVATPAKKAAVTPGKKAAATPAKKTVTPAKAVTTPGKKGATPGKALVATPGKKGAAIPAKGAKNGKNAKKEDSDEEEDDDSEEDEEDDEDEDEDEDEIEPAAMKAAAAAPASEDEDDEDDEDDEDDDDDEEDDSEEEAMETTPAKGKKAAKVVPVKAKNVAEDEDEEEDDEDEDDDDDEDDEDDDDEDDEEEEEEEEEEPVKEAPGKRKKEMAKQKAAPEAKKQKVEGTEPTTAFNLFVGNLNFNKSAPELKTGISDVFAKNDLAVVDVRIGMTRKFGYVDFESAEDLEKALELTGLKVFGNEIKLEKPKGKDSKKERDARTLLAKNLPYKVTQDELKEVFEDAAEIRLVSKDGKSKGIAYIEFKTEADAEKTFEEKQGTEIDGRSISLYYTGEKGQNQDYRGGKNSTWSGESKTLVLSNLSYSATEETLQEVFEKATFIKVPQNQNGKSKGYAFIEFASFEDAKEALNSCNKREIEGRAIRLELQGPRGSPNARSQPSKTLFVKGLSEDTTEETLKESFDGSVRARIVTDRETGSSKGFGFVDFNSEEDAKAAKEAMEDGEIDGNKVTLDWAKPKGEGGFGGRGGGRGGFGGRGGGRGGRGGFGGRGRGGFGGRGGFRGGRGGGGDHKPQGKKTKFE
T2 sequence (O14744 whole entry): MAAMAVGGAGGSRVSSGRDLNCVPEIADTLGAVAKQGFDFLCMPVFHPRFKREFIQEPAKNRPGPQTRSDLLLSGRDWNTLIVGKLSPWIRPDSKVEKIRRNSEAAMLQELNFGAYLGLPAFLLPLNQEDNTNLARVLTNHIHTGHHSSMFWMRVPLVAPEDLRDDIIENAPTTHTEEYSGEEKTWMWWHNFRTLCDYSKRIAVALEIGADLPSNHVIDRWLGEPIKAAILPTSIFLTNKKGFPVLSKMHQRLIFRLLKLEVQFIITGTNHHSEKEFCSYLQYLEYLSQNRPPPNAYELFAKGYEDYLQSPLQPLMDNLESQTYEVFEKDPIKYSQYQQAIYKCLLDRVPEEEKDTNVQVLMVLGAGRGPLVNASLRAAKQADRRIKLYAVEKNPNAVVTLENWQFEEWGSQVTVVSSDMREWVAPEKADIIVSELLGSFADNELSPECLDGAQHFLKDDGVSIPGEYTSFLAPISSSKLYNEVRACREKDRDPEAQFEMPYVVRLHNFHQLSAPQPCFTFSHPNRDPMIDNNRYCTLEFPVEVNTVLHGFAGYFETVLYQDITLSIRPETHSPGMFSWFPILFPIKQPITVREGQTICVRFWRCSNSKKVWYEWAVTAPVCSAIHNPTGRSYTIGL

B1: Human recombinant protein CITED2 (natural protein, UniProt Q99967 1-270, looked up)
chain: MADHMMAMNHGRFPDGTNGLHHHPAHRMGMGQFPSPHHHQQQQPQHAFNALMGEHIHYGAGNMNATSGIRHAMGPGTVNGGHPPSALAPAARFNNSQFMGPPVASQGGSLPASMQLQKLNNQYFNHHPYPHNHYMPDLHPAAGHQMNGTNQHFRDCNPKHSGGSSTPGGSGGSSTPGGSGSSSGGGAGSSNSGGGSGSGNMPASVAHVPAAMLPPNVIDTDFIDEEVLMSLVIEMGLDRIKELPELWLGQNEFDFMTDFVCKQQPSRVSC
notes: CITED2, human, recombinant protein bought from Origene; No catalogue number, host, tag or limits are printed; source: bought: Origene
As for B1, the binding result in assay [1] and in assay [2] was “binds” throughout.
